{
  "source": "IntAct's records for PubMed 16858409",
  "parents": {"B1": {"name": "TNF receptor-associated factor 3 (Mus musculus), Q60803 (parent)", "chain": "MESSKKMDAAGTLQPNPPLKLQPDRGAGSVLVPEQGGYKEKFVKTVEDKYKCEKCRLVLCNPKQTECGHRFCESCMAALLSSSSPKCTACQESIIKDKVFKDNCCKREILALQVYCRNEGRGCAEQLTLGHLLVHLKNECQFEELPCLRADCKEKVLRKDLRDHVEKACKYREATCSHCKSQVPMIKLQKHEDTDCPCVVVSCPHKCSVQTLLRSELSAHLSECVNAPSTCSFKRYGCVFQGTNQQIKAHEASSAVQHVNLLKEWSNSLEKKVSLLQNESVEKNKSIQSLHNQICSFEIEIERQKEMLRNNESKILHLQRVIDSQAEKLKELDKEIRPFRQNWEEADSMKSSVESLQNRVTELESVDKSAGQAARNTGLLESQLSRHDQMLSVHDIRLADMDLRFQVLETASYNGVLIWKIRDYKRRKQEAVMGKTLSLYSQPFYTGYFGYKMCARVYLNGDGMGKGTHLSLFFVIMRGEYDALLPWPFKQKVTLMLMDQGSSRRHLGDAFKPDPNSSSFKKPTGEMNIASGCPVFVAQTVLENGTYIKDDTIFIKVIVDTSDLPDP", "partner": "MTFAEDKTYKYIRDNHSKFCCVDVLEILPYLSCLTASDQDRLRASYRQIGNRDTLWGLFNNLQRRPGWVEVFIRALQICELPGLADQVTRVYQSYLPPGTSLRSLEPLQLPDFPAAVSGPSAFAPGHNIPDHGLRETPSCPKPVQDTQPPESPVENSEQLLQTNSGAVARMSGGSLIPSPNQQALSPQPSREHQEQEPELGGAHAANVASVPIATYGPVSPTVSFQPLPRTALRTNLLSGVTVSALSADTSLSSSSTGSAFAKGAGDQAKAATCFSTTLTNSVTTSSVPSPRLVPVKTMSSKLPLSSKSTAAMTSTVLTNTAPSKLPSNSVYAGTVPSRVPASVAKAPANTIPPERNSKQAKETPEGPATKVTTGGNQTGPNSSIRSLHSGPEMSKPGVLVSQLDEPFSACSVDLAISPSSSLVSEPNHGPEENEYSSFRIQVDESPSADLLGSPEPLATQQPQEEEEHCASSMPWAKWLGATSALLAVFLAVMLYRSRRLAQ"}, "B2": {"name": "Mitochondrial antiviral-signaling protein (Mus musculus), Q8VCF0 (parent)", "chain": "B1 partner", "partner": "B1 chain"}},
  "data": [
    {"variants_of": "B1", "details": "with mavs_mouse Mavs", "values": [
      {"variant": "MESSKKMDAAGTLQPNPPLKLQPDRGAGSVLVPEQGGYKEKFVKTVEDKYKCEKCRLVLCNPKQTECGHRFCESCMAALLSSSSPKCTACQESIIKDKVFKDNCCKREILALQVYCRNEGRGCAEQLTLGHLLVHLKNECQFEELPCLRADCKEKVLRKDLRDHVEKACKYREATCSHCKSQVPMIKLQKHEDTDCPCVVVSCPHKCSVQTLLRSELSAHLSECVNAPSTCSFKRYGCVFQGTNQQIKAHEASSAVQHVNLLKEWSNSLEKKVSLLQNESVEKNKSIQSLHNQICSFEIEIERQKEMLRNNESKILHLQRVIDSQAEKLKELDKEIRPFRQNWEEADSMKSSVESLQNRVTELESVDKSAGQAARNTGLLESQLSRHDQMLSVHDIRLADMDLRFQVLETASYNGVLIWKIRDYKRRKQEAVMGKTLSLASQPFYTGYFGYKMCARVYLNGDGMGKGTHLSLFFVIMRGEYDALLPWPFKQKVTLMLMDQGSSRRHLGDAFKPDPNSSSFKKPTGEMNIASGCPVFVAQTVLENGTYIKDDTIFIKVIVDTSDLPDP", "note": "[Y440A]", "effect of a mutation on the interaction": "disrupting interaction"},
      {"variant": "MESSKKMDAAGTLQPNPPLKLQPDRGAGSVLVPEQGGYKEKFVKTVEDKYKCEKCRLVLCNPKQTECGHRFCESCMAALLSSSSPKCTACQESIIKDKVFKDNCCKREILALQVYCRNEGRGCAEQLTLGHLLVHLKNECQFEELPCLRADCKEKVLRKDLRDHVEKACKYREATCSHCKSQVPMIKLQKHEDTDCPCVVVSCPHKCSVQTLLRSELSAHLSECVNAPSTCSFKRYGCVFQGTNQQIKAHEASSAVQHVNLLKEWSNSLEKKVSLLQNESVEKNKSIQSLHNQICSFEIEIERQKEMLRNNESKILHLQRVIDSQAEKLKELDKEIRPFRQNWEEADSMKSSVESLQNRVTELESVDKSAGQAARNTGLLESQLSRHDQMLSVHDIRLADMDLRFQVLETASYNGVLIWKIRDYKRRKQEAVMGKTLSLYSAPFYTGYFGYKMCARVYLNGDGMGKGTHLSLFFVIMRGEYDALLPWPFKQKVTLMLMDQGSSRRHLGDAFKPDPNSSSFKKPTGEMNIASGCPVFVAQTVLENGTYIKDDTIFIKVIVDTSDLPDP", "note": "[Q442A]", "effect of a mutation on the interaction": "disrupting interaction"}
    ]},
    {"variants_of": "B2", "details": "with traf3_mouse Traf3, Q60803", "values": [
      {"variant": "MTFAEDKTYKYIRDNHSKFCCVDVLEILPYLSCLTASDQDRLRASYRQIGNRDTLWGLFNNLQRRPGWVEVFIRALQICELPGLADQVTRVYQSYLPPGTSLRSLEPLQLPDFPAAVSGPSAFAPGHNIPDHGLRETPSCPKPVQDIQPPESPVENSEQLLQTNSGAVARMSGGSLIPSPNQQALSPQPSREHQEQEPELGGAHAANVASVPIATYGPVSPTVSFQPLPRTALRTNLLSGVTVSALSADTSLSSSSTGSAFAKGAGDQAKAATCFSTTLTNSVTTSSVPSPRLVPVKTMSSKLPLSSKSTAAMTSTVLTNTAPSKLPSNSVYAGTVPSRVPASVAKAPANTIPPERNSKQAKETPEGPATKVTTGGNQTGPNSSIRSLHSGPEMSKPGVLVSQLDEPFSACSVDLAISPSSSLVSEPNHGPEENEYSSFRIQVDESPSADLLGSPEPLATQQPQEEEEHCASSMPWAKWLGATSALLAVFLAVMLYRSRRLAQ", "note": "[T147I]", "effect of a mutation on the interaction": "disrupting interaction"}
    ]}
  ]
}
